pKd: −log10 of the molar value. One block for each substance: values may come before it.
What was measured:
Assay in all cases: ITC; Affinity-ITC calorimeter, 25°C; 20 mM Tris-HCl pH 7.5, 150 mM NaCl, 1 mM DTT; independent binding model
[1] = target: Pub1 (287-767) (S. pombe) (UniProt Q92462)
[2] = target: Rsp5 WW1-HECT domain (224-809) (S. cerevisiae) (UniProt P39940)
[3] = target: pub1-F576A (S. pombe) (UniProt Q92462)
[4] = target: Rsp5 HECT domain (444-809) (S. cerevisiae) (UniProt P39940)

pKd [1]: 5.68
Substance: Any1 (17-361) (natural protein)

Substance: Art1 PY motifs containing region (661-710) (domain or fragment)
pKd [2]: 5.44

fold enhancement of binding against non-conjugated Any1 [1]: 8 fold
pKd [3]: 5.64
Substance: Any1 conjugated with K63 di-Ub (from UniProt P0CG63 1-76; P0CG63 1-76) (complex)

pKd [4]: 3.92
Substance: K63 di-Ub with a distal end ubiquitin mutant (I44A) (from UniProt P0CG63 1-76; P0CG63 1-76) (complex)
